# Results taken from patent US20040001835A1, “Prevention or treatment of cancer using integrin alphavbeta3 antagonists in combination with other agents” (MedImmune, Inc., priority 2002, published 2004).
# T1: αvβ3 expressed on placenta (placental trophoblasts) (Mus musculus, UniProt O54890)
# T1 construct: from tissue; host or cells: placenta (frozen sections)
# T1 sequence (O54890 26-787): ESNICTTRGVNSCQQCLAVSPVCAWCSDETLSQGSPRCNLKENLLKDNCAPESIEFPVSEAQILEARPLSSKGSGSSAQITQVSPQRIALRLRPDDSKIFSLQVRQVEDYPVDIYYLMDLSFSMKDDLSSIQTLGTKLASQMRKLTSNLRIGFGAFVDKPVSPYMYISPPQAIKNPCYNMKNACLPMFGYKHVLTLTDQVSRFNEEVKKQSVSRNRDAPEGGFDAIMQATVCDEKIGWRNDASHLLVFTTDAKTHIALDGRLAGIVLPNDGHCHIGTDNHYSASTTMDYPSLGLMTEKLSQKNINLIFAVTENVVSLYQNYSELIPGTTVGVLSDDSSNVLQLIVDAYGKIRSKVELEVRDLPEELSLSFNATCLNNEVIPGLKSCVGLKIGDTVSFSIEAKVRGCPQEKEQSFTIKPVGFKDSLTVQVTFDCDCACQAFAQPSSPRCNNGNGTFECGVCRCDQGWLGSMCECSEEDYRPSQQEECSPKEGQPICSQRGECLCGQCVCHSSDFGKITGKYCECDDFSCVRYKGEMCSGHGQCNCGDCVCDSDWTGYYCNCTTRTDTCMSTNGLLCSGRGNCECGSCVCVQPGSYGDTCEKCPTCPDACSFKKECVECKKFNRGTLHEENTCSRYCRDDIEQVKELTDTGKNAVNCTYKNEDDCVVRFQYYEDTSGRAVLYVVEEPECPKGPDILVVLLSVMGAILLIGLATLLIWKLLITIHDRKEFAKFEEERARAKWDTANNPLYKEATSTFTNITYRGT
# T1 sequence (P43406 31-885 partner limits assumed): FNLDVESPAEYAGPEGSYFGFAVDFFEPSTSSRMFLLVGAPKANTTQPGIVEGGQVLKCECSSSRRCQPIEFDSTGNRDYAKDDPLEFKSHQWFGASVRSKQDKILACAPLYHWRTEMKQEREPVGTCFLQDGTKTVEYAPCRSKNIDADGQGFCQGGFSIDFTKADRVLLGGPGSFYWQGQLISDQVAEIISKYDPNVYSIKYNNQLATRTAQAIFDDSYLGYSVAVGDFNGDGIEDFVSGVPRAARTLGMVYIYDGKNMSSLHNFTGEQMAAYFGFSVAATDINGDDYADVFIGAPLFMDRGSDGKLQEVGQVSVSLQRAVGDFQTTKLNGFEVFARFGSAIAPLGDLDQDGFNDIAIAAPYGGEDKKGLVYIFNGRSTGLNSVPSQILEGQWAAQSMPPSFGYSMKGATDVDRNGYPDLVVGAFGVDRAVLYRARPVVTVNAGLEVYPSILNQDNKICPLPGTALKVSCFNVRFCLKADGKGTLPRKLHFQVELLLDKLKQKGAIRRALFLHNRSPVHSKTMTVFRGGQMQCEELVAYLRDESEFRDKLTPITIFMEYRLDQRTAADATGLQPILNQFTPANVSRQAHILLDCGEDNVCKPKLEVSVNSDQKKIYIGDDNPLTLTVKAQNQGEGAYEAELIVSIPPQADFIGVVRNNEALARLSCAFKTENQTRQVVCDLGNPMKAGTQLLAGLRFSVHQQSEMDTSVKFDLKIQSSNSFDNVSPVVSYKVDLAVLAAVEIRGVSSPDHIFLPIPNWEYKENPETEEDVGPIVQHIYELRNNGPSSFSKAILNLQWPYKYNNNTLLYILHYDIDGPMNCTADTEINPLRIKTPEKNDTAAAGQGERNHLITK
# T1 sequence (P43406 887-1044 partner limits assumed): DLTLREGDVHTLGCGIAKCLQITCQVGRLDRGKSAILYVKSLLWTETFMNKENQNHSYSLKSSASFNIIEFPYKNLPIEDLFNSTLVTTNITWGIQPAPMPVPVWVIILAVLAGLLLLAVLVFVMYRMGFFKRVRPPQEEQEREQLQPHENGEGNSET
# T2: αvβ3 expressed on placenta (placental trophoblasts) (Rattus norvegicus, UniProt Q8R2H2)
# T2 construct: from tissue; host or cells: placenta (frozen sections)
# T2 sequence (Q8R2H2 26-787): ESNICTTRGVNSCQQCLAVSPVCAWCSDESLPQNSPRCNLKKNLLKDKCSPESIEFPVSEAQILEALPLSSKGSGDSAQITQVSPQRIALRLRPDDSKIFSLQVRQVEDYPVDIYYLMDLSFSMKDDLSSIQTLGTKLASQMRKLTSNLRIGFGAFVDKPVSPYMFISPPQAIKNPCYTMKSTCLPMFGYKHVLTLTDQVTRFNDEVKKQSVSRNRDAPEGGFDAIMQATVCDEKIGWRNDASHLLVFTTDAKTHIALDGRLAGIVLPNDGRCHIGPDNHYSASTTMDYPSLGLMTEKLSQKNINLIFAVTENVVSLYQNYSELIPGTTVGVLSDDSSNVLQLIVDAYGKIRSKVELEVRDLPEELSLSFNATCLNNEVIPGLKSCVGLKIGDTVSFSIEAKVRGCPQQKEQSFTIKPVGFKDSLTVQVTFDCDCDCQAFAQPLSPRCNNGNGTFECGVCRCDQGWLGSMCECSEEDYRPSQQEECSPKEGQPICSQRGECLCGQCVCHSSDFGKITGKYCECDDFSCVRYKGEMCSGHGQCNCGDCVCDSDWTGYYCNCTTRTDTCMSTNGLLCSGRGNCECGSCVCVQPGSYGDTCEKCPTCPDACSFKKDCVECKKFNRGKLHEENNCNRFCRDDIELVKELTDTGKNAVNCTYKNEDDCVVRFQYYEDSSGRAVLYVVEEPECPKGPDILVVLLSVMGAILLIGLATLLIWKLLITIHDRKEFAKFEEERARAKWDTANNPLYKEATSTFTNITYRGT
# B1: Vitaxin®: humanized blocking monoclonal antibody that binds Integrin αVβ3 (MEDI-522, MedImmune); humanized and optimized version of LM609 (antibody, chains of the INN, looked up, V domains shown)
# VH: QVQLVESGGGVVQPGRSLRLSCAASGFTFSSYDMSWVRQAPGKGLEWVAKVSSGGGSTYYLDTVQGRFTISRDNSKNTLYLQMNSLRAEDTAVYYCARHLHGSFASWGQGTTVTVSS
# VL: EIVLTQSPATLSLSPGERATLSCQASQSISNFLHWYQQRPGQAPRLLIRYRSQSISGIPARFSGSGSGTDFTLTISSLEPEDFAVYYCQQSGSWPLTFGGGTKVEIK
# Assays:
# Experiment in all cases: Immunohistochemical staining of placental trophoblasts
# Type in all cases: binding
# Settings in all cases: frozen thin sections, antibody 10 μg/ml
# [1] = target: T1, αvβ3 expressed on placenta (placental trophoblasts)
# Experimental: (§1) Table 3. Immunohistochemical staining of placental trophoblasts. Placental tissue, a rich source of αvβ3, was collected either immediately after parturition or from freshly-sacrificed, late-term pregnant animals. Tissue fragments, approximately 1 cm^3, were frozen in OCT, and thin sections were stained with monoclonal antibodies (10 μg/ml) at Sierra Biomedical (Sparks, Nev.). Vitaxin® recognized αvβ3 expressed on human, monkey, guinea pig, hamster and rabbit placenta, while […] with human and monkey αvβ3. […] ND, not done.
# [2] = target: T2, αvβ3 expressed on placenta (placental trophoblasts)
# Experimental: as §1
# [3] = tested on: αvβ3 expressed on placenta (placental trophoblasts)
# Experimental: as §1
molecule,measurement,setting,value
B1,Staining of Placental Trophoblasts,[1],Negative
same,Staining of Placental Trophoblasts,[2],Negative
same,Staining of Placental Trophoblasts,[3]; Cynomolgus monkey placenta,recognized
same,Staining of Placental Trophoblasts,[3]; Guinea pig placenta,recognized
same,Staining of Placental Trophoblasts,[3]; Hamster placenta,recognized
same,Staining of Placental Trophoblasts,[3]; Rabbit placenta,recognized
